Measured values from patent US20250320281A1.

Experiments:
Experiment in all cases: cell-based or functional assay
[1] = molecular target: HIV-1 Env of pseudovirus MGRM-G-004 (clade G) (HIV-1)
[2] = molecular target: HIV-1 envelope glycoprotein (Env) of isolate MGRM-A-001, clade A (HIV-1)
[3] = molecular target: HIV-1 Env of pseudovirus MGRM-F1-023 (HIV-1)
[4] = molecular target: HIV-1 envelope glycoprotein (Env) of isolate MGRM-A-008, clade A (HIV-1)
[5] = molecular target: HIV-1 92UG024 envelope glycoprotein (Env) on pseudovirus (HIV-1)
[6] = molecular target: HIV-1 Env of isolate MGRM-Chronic-B-001, clade B, on pseudovirus (HIV-1)
[7] = molecular target: HIV-1 Env of isolate MGRM-D-028 (clade D pseudovirus) (HIV-1)
[8] = molecular target: HIV-1 Env of pseudovirus MGRM-F1-022 (HIV-1)
[9] = molecular target: HIV-1 Env of isolate MGRM-D-012 (clade D pseudovirus) (HIV-1)
[10] = molecular target: HIV-1 Env of pseudovirus MGRM-G-013 (HIV-1, clade G isolate MGRM-G-013)
[11] = molecular target: HIV-1 Env of pseudovirus MGRM-Chronic-B-011 (HIV-1)
[12] = molecular target: HIV-1 Env of isolate THR0.18 (Acute), clade B, on pseudovirus (HIV-1)
[13] = molecular target: HIV-1 Env of pseudovirus MGRM-G-016 (HIV-1, clade G isolate MGRM-G-016)
[14] = molecular target: HIV-1 Env of isolate CAAN.A2 (Acute), clade B, on pseudovirus (HIV-1)
[15] = molecular target: HIV-1 Env of pseudovirus MGRM-G-024 (HIV-1, clade G isolate MGRM-G-024)
[16] = molecular target: HIV-1 Env of isolate MGRM-Chronic-B-001 (subtype B) (HIV-1)
[17] = molecular target: HIV-1 JRFL Env (pseudovirus, clade B) (HIV-1)
[18] = molecular target: HIV-1 Env of isolate 92UG046 (HIV-1)
[19] = molecular target: HIV-1 Env of isolate TRJ04551.58 (subtype B) (HIV-1)
[20] = molecular target: HIV-1 Env of isolate SF162 (subtype B) (HIV-1) (UniProt P19550)
[21] = molecular target: HIV-1 Env of isolate MG RM-D-012 (HIV-1)
[22] = molecular target: HIV-1 93UG077 Env (pseudovirus, clade A) (HIV-1)
[23] = molecular target: aMLV envelope (pseudovirus, negative control)
[24] = molecular target: HIV-1 MGRM-AG-005 Env (pseudovirus) (HIV-1)
[25] = molecular target: HIV-1 Env of isolate MGRM-Chronic-B-010 (subtype B) (HIV-1)
[26] = molecular target: HIV-1 Env of isolate MG RM-D-005 (HIV-1)
[27] = molecular target: HIV-1 Env of isolate QH0692.42 (subtype B) (HIV-1)
[28] = molecular target: HIV-1 Env of isolate 92UG024 (HIV-1)
[29] = molecular target: HIV-1 envelope glycoprotein (Env) of isolate MGRM-C-009 (HIV-1)
[30] = molecular target: HIV-1 envelope glycoprotein (Env) of isolate MGRM-C-025 (HIV-1)
[31] = molecular target: HIV-1 Env of isolate MGRM-A-002 (HIV-1)
[32] = molecular target: HIV-1 Env of isolate MGRM-Chronic-B-017 (subtype B) (HIV-1)

1443_C16 (PG16) (TCN-116) (antibody), sequence (VH): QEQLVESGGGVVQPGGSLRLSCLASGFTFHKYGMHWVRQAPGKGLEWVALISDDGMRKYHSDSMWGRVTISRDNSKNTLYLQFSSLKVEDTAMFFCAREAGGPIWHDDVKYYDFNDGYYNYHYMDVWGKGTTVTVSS
1443_C16 (PG16) (TCN-116) (antibody), sequence (VL): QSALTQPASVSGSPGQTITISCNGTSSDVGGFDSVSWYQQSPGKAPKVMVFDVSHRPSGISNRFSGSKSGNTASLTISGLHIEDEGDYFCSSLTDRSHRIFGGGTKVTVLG
5329_C19 (PGT-136) (antibody), sequence (VH): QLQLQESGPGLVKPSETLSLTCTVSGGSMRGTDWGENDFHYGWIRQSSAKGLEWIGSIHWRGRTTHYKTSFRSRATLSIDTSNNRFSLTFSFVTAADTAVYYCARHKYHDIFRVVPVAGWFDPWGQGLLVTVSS
5329_C19 (PGT-136) (antibody), sequence (VL): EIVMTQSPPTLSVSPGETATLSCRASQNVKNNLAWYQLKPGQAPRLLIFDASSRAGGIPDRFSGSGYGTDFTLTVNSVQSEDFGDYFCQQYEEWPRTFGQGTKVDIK

Substance	IC50 [1] [µg/mL]	IC50 (µg/ml), pseudovirus neutralization [2] [µg/mL]	IC50 (µg/ml), pseudovirus neutralization [3] [µg/mL]	IC50 (µg/ml), pseudovirus neutralization [4] [µg/mL]	IC50, pseudovirus neutralization [5] [µg/mL]	IC50 (µg/ml), pseudovirus neutralization [6] [µg/mL]	IC50 (µg/ml), pseudovirus neutralization [7] [µg/mL]	IC50 (µg/ml), pseudovirus neutralization [8] [µg/mL]	IC50 (µg/ml), pseudovirus neutralization [9] [µg/mL]	IC50 (µg/ml), pseudovirus neutralization [10] [µg/mL]	IC50 (µg/ml), pseudovirus neutralization [11] [µg/mL]	IC50 (µg/ml), pseudovirus neutralization [12] [µg/mL]	IC50 (µg/ml), pseudovirus neutralization [13] [µg/mL]	IC50 (µg/ml), pseudovirus neutralization [14] [µg/mL]	IC50 (µg/ml), pseudovirus neutralization [15] [µg/mL]	IC50 neutralization [16] [µg/mL]	IC50 neutralization [17] [µg/mL]	IC50 (µg/mL), pseudovirus neutralization [18] [µg/mL]	IC50 neutralization [19] [µg/mL]	IC50 neutralization [20] [µg/mL]	further results
2F5 (antibody)	> 50	> 50	1.78	> 50	1.27	0.55	> 50	1.26	1.7	0.59	0.81	> 50	16.8	23.1	1.07						
2G12 (antibody)	> 50	> 50	9.23	> 50	0.59	0.08	> 50	> 50	> 50	> 50	> 50	> 50	> 50	> 50	> 50						
4E10 (antibody)	1.47	15.1	0.44	7.59	1.32	1.46	1.28	1.01	1.13	1.15	1.07	4.68	1.02	17.9	1.57						
1443_C16 (PG16) (TCN-116) (antibody)	> 50	> 50	> 50	> 50	> 50	> 50	> 50	0.08	0.35	> 50	> 50	1.34	11.3	8.83	0.01						
1495_C14 (PGC14) (antibody)	> 50	> 50	> 50	> 50	> 50	> 50	> 50	> 50	> 50	> 50	> 50	> 50	> 50	> 50	> 50						
5147_N06 (PGT-130) (antibody)																> 50	0.0346	> 50	0.023	0.007	IC50 (µg/mL), pseudovirus neutralization [21]: > 50 µg/mL; IC50 neutralization [22]: > 10 µg/mL; Neutralization by PGT-130, IC50 [23]: > 10 µg/mL; Neutralization by PGT-130, IC80 [23]: > 10 µg/mL; Neutralization by PGT-130, IC90 [23]: > 10 µg/mL; Neutralization by PGT-130, IC95 [23]: > 10 µg/mL; neutralization IC50 (pseudovirus) [23]: > 10 µg/mL; Neutralization by PGT-130, IC50 [24]: 0.947 µg/mL; Neutralization by PGT-130, IC80 [24]: > 10 µg/mL; Neutralization by PGT-130, IC90 [24]: > 10 µg/mL; Neutralization by PGT-130, IC95 [24]: > 10 µg/mL; neutralization IC50 (pseudovirus) [24]: 0.947 µg/mL; IC50 neutralization [25]: 0.006 µg/mL; IC50 (µg/mL), pseudovirus neutralization [26]: > 50 µg/mL; IC50 neutralization [27]: > 50 µg/mL; IC50 (µg/mL), pseudovirus neutralization [28]: > 50 µg/mL; IC50 (µg/mL), pseudovirus neutralization [29]: > 50 µg/mL; IC50 (µg/mL), pseudovirus neutralization [30]: > 50 µg/mL; IC50 [31]: 0.01 µg/mL; IC50 neutralization [32]: > 50 µg/mL
5329_C19 (PGT-136) (antibody)																> 50	> 10	> 50	> 50	0.482	IC50 (µg/mL), pseudovirus neutralization [21]: > 50 µg/mL; IC50 neutralization [22]: > 10 µg/mL; IC50 (neutralizing activity, pseudovirus) [24]: > 10 µg/mL; IC50 neutralization [25]: > 50 µg/mL; IC50 (µg/mL), pseudovirus neutralization [26]: > 50 µg/mL; IC50 neutralization [27]: > 50 µg/mL; IC50 (µg/mL), pseudovirus neutralization [28]: 0.052 µg/mL; IC50 (µg/mL), pseudovirus neutralization [29]: > 50 µg/mL; IC50 (µg/mL), pseudovirus neutralization [30]: > 50 µg/mL; IC50 [31]: > 50 µg/mL; IC50 neutralization [32]: > 50 µg/mL
5343_B08 (PGT-135) (antibody)																> 50	> 10	> 50	> 50	0.023	IC50 (µg/mL), pseudovirus neutralization [21]: > 50 µg/mL; IC50 neutralization [22]: > 10 µg/mL; IC50 (neutralizing activity, pseudovirus) [24]: > 10 µg/mL; IC50 neutralization [25]: > 50 µg/mL; IC50 (µg/mL), pseudovirus neutralization [26]: > 50 µg/mL; IC50 neutralization [27]: > 50 µg/mL; IC50 (µg/mL), pseudovirus neutralization [28]: 0.01 µg/mL; IC50 (µg/mL), pseudovirus neutralization [29]: > 50 µg/mL; IC50 (µg/mL), pseudovirus neutralization [30]: > 50 µg/mL; IC50 [31]: > 50 µg/mL; IC50 neutralization [32]: > 50 µg/mL
b12 (antibody)	> 50	> 50	> 50	> 50	49.1	0.75	0.78	> 50	0.13	> 50	2.11	3.62	> 50	> 50	2.38						
